# B1: Pistol ribozyme (parent)
# chain: GGGUCGUUGUUCCAUAAUCGCGUGGAUAUGGCACGCAAGUUUCUACCGGGCACCGUAAAUGUCCGACUGGAGCCGUUCGGGCGGCUAUAAACAGACCUCAGGCCCGAAGCGUGGCGGCACCUGCCGCCGGUGGUAAAAAAGAUCGGAAGAGCACACGUCU
# Variants of: B1
# Experiment: aptazyme ON/OFF ratio, guanine; higher = stronger switching; co-transcriptional cleavage with and without guanine
row,Variant,aptazyme ON/OFF ratio
1,U7G G9U U10C C12U,1.51
2,U7G G9U U10C C12A,2.03
3,U7G G9C U11G C13A,1.29
4,U7G G9C U11G C13G,1.31
5,U7G G9C U11G C13U,1.17
6,U7G G9C U11G C12A C13G,1.31
7,U7G G9C U11G C12A C13A,1.21
8,U7G G9C U11G C12A C13U,1.47
9,U7G G9U C12U,2.07
10,U7G G9U C12G,1.42
11,U7G G9U C12A,1.97
12,U7G G9U U10A C12A C13U,1.75
13,U7G G9U U10A C12A C13A,1.38
14,U7G G9U U10A C12A C13G,1.26
15,U7G G9U U10A C12G,1.59
16,U7G G9U U10A C12A,1.65
17,U7G G9U U10A C12U,1.54
18,U7G G9C U10C U11A C13G,1.22
19,U7G G9C U10C U11A C13U,1.25
20,U7G G9C U10C U11A C13A,1.24
21,U7G G9U U10A U11G C13A,1.13

row,Variant,aptazyme ON/OFF ratio
1,U7G G9U U10A U11G C13G,1.15
2,U7G G9U U10A U11G C13U,1.29
3,U7G G9C U10C U11C C12A C13U,1.03
4,U7G G9C U10C U11C C12A C13G,1.09
5,U7G G9C U10C U11C C12A C13A,1.02
6,U7G G9C U10G U11A C12A C13U,1.17
7,U7G G9C U10G U11A C12A C13G,1.12
8,U7G G9C U10G U11A C12A C13A,1.13
9,U7G G9C U10G U11G C13U,1.36
10,U7G G9C U10G U11G C13G,1.21
11,U7G G9C U10G U11G C13A,1.17
12,U7G G9C U10C U11A C12U C13G,1.21
13,U7G G9C U10C U11A C12U C13A,1.18
14,U7G G9C U10C U11A C12U C13U,1.32
15,U7G G9C U10C U11A C12A,1.46
16,U7G G9C U10C U11A C12G,1.31
17,U7G G9C U10C U11A C12U,1.4
18,U7G G9C U10C U11C C12G C13G,1.05
19,U7G G9C U10C U11C C12G C13A,1.08
20,U7G G9C U10C U11C C12G C13U,1.06
21,U7G G9U U10C U11C C12A C13G,1.4

row,Variant,aptazyme ON/OFF ratio
1,U7G G9U U10C U11C C12A C13A,1.37
2,U7G G9U U10C U11C C12A C13U,1.47
3,U7G G9C U10G U11A C12G,1.28
4,U7G G9C U10G U11A C12A,1.18
5,U7G G9C U10G U11A C12U,1.19
6,U7G G9U U10A C12G C13G,1.24
7,U7G G9U U10A C12G C13U,1.4
8,U7G G9U U10A C12G C13A,1.09
9,U7G G9U U10A U11A C12U,1.54
10,U7G G9U U10A U11A C12G,1.41
11,U7G G9U U10A U11A C12A,1.3
12,U7G G9U U10A U11C C12A C13G,1.21
13,U7G G9U U10A U11C C12A C13U,1.46
14,U7G G9U U10A U11C C12A C13A,1.24
15,U7G G9U U10C,3.94
16,U7G G9U U10A,3.84
17,U7G G9U U10C U11C C12G,1.23
18,U7G G9U U10C U11C C12U,1.41
19,U7G G9U U10C U11C C12A,1.37
20,U7G G9U U10C U11A C12U C13G,1.23
21,U7G G9U U10C U11A C12U C13U,1.33

row,Variant,aptazyme ON/OFF ratio
1,U7G G9U U10C U11A C12U C13A,1.33
2,U7G G9C U10A U11G C12U C13A,1.18
3,U7G G9C U10A U11G C12U C13G,1.2
4,U7G G9C U10A U11G C12U C13U,1.26
5,U7G G9C U10C C12U C13G,1.21
6,U7G G9C U10C C12U C13A,1.21
7,U7G G9C U10C C12U C13U,1.34
8,U7G G9C U10G,1.89
9,U7G G9C U10C,2.77
10,U7G G9U U10A U11G C12G C13U,1.25
11,U7G G9U U10A U11G C12G C13G,1.14
12,U7G G9U U10A U11G C12G C13A,1.04
13,U7G G9C U11C C13U,1.39
14,U7G G9C U11C C13A,1.42
15,U7G G9C U11C C13G,1.06
16,U7G G9C U10C U11G C12U,1.57
17,U7G G9C U10C U11G C12A,1.14
18,U7G G9C U10C U11G C12G,1.1
19,U7G G9C U10C C13G,1.09
20,U7G G9C U10C C13A,1.14

# — the RNAGym collection of RNA variant scans (doi:10.1021/acssynbio.7b00057)
